Data on 1 molecule can be found in patent US20230192839A1, “ANTIBODIES HAVING CONDITIONAL AFFINITY AND METHODS OF USE THEREOF” (PFIZER INC., priority 2017, published 2023).

The subject of test [1] is MV4-11 cells. Briefly: Sequential rounds of in vitro cytotoxicity assays with changing MTX concentration (reversible inhibition). The class given is cell-based, human. As to conditions: Round 0-1 no MTX, then 100 µM MTX at Round 1-2 and Round 2-3; FIGS. 9A and 9B. As for the experimental part:
The anti-CD33 clones tested in this example were: P03_A01, P07_C04, and P02_D09. In addition, a tool T cell was prepared as described in Example 4, as were untransduced T cells. Also, each of the different conditional CAR T cells described above was generated in triplicate from PBMC cells from three different human donors. The target cell line used in this assay was MV4-11; these cells were transduced to stably express GFP and firefly luciferase, as described in Example 5.
This experiment involved a series of in vitro cytotoxicity assays, in which co-cultures of T cells and MV4-11 target cells were incubated together for multiple rounds of sequential cytotoxicity assays, in which the MTX concentration changed at different rounds of the assays. In vitro cytotoxicity assays were carried out in 24-well plates by co-culturing 200,000 T cells with 200,000 MV4-11 cells, for each different T cells described above. In addition, each of the co-cultures contained either 100 µM MTX or 0 µM MTX at different times, as indicated by the schematics in FIGS. 9A and 9C. In both conditions, 1 mM leucovorin was supplemented to circumvent MTX toxicity. For each round of the assay, co-cultures were maintained in a final volume of 500 µl of RPMI 1640 medium at 37 C with 5% CO2 for 48 hours. At the end of each round, cells were spun down (250 × g, 10 minutes), supernatant was removed, and fresh media containing fresh MV4-11 cells, leucovorin, and optionally MTX were added according to the schematics shown in FIGS. 9A and 9C. Target cell killing was assessed and plotted as described in Example 4.
In comparing the different panels of FIGS. 9A-9D, note that the schematics shown in FIGS. 9A and 9C indicate the MTX concentration in the co-culture at the start of the assay for a given round, whereas the results from that assay are shown the next round number in FIGS. 9B and 9D, respectively. […]

The subject of test [2] is MV4-11 cells. The test is described as follows: Flow cytometry analysis of MTX-dependent CAR T cell activation (CD69) and proliferation (CellTrace). The test is classed as cell-based, human. The conditions noted are these: 100 µM MTX vs 0 µM MTX, with target cells, FIG. 8. As for the experimental part: The anti-CD33 clone used in this example was P02_D09. CAR T cells containing this clone were generated in duplicate from PBMC cells from two different human donors. The target cell line used in this assay was MV4-11, as described in Example 5.
To assess activation of the conditional CAR T cells described above, in vitro cytotoxicity assays were carried out in 24-well plates by co-culturing 250,000 CAR T cells, with or without 250,000 MV4-11 cells. In addition, each of the co-cultures contained either 100 µM MTX or 0 µM MTX. In all conditions, 1 mM leucovorin was supplemented to circumvent MTX toxicity. Cells were collected after 24 hours of co-culture, labeled with fluorophore-conjugated antibody to CD69 (Biolegend) and analyzed by flow cytometry (BD LSR II). Activation was quantified via detection of the early activation marker, CD69.
To assess proliferative ability of the CAR T cells described above, the cells were prelabelled with the fluorescent intracellular dye, CellTrace Deep Red (Invitrogen), before co-culturing as described immediately above for the CAR T cell activation assay. The co-cultures were incubated for 7 days at 37 C with 5% CO2. On day 7, cells were collected and analyzed via flow cytometry. Dilution of the CellTrace dye (leftward shift of peaks in the histogram) was interpreted as T cell proliferation.
Background: In flow cytometry, cells or beads pass a laser one at a time.

A further test deals with human CD33. The test is described as follows: Biacore SPR binding kinetics of anti-CD33 scFv-Fc clones with or without 10 µM MTX. The method, boiled down: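 Kinetics by SPR at 37° C in 10 mM Hepes pH 7.4, 150 mM NaCl, 0.05% Tween-20, with or without 10 µM MTX. Double-referenced data fit globally to Langmuir with mass transport; KD = koff/kon. Where binding was too weak for kinetics, KD or KD limit estimated from response at highest analyte concentration or instrument detection limit.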
On the technique in general: SPR reads the build-up and loss of mass on a sensor chip optically.

The subject of a further test is MV4-11 target cells. The test is described as follows: Proliferation of CD33-specific conditional CAR T cells after CAR or TCR stimulation, cell count by flow cytometry. As to conditions: 100 µM MTX vs no MTX, 7 days, FIG. 7. The class given is cell-based, human. As for the experimental part:
The example examines the proliferative capabilities of conditional CAR T cells containing an anti-CD33 antibody having conditional affinity after stimulation of the CAR T cell via either the CAR T cell’s i) CAR or ii) TCR. In addition, these were examined in both the presence and absence of methotrexate (MTX).
The anti-CD33 clone used in this example was P02_D09. In addition, a tool T cell was prepared as described in Example 4, as were untransduced T cells. T cells from one PBMC donor were used for this experiment.
The target cell line used in this assay was MV4-11, as described in Example 5.
The assays were carried out in 96-well plates by culturing 100,000 T cells with various other reagents (depending on the assay), for each of the different T cells described above. In addition, each of the co-cultures contained either 100 µM MTX or 0 µM MTX. In both conditions, 1 mM leucovorin was supplemented to circumvent MTX toxicity. The T cells were stimulated by CAR or TCR as in Example 6. Cultures were maintained in a final volume of 100 ul of RPMI 1640 medium for 7 days at 37 C with 5% CO2. On day 7, cells were collected and counted via flow cytometry (BD LSR II) using 123Count eBeads (Thermo Fisher Scientific).

Setting [3] is: CD33, 0 µM MTX, 37° C., pH 7.4, scFv-Fc.

B1: P02_D09: anti-CD33 clone with conditional affinity; VH SEQ ID NO: 35, VL SEQ ID NO: 36; also as scFv in CAR (antibody, V domains shown)
VH: QVQLVESGGGLVQAGGSLRLSCAASRRSSRSWAMHWVRQAPGKGLEWVAVISYDGRLKYYADSVKGRFTISRDNAEYLVYLQMNSLRAEDTAVYYCAAEEGDGGFFDYWGQGTLVTVSS
VL: QSVLTQPPSASGTPGQRVTISCSGSSSNIGSNYVNWYQQLPGTAPKLLIYRNNERPSGVPDRFSGSKSGTSASLAISGLRSEDEADYYCAAWDGSLSGRGVFGTGTKLTVL
modifications: Synthetic Antibody
notes: also as scFv in CAR
Take B1: the “target cell killing when MTX is added to active CAR T cells ("on" to "off")” value with MV4-11 cells [1] is “quick inhibition rates”. Also, the “activation (CD69) in the presence of MTX” value with MV4-11 cells [2] (24 hours) was “dramatically reduced”. Further, in the test on MV4-11 cells [2] (7 days), the “proliferation (CellTrace dilution) in the presence of MTX” value is given as “dramatically reduced”. The “affinity for CD33 in the presence of MTX as compared to absence (in words)” value with human CD33 (10 µM MTX vs 0 µM MTX) is “significantly greater affinity toward CD33 (i.e. lower KD) in the absence of MTX than in the presence of MTX”. Moreover, in the test with human CD33 (setting [3]), the “koff, kinetics toward antigen with 0 µM MTX” value was 0.018 s⁻¹ and the “kon, kinetics toward antigen with 0 µM MTX” value amounted to 40000 M⁻¹ s⁻¹. Besides, the Kd (in general, the concentration at which binding is half-saturated) at human CD33 (CD33, 10 µM MTX, 37° C., pH 7.4, koff/kon, or estimated from binding response / limit of detection for weak interactions, read-out: KD, kinetics toward antigen with 10 µM MTX) is greater than 9.29 µM. Besides, the “proliferative ability, CAR stimulation, presence of MTX” value in the test on MV4-11 target cells (CAR stimulation (CD33)) was “dramatically diminished”. Moreover, the “proliferation, TCR stimulation, presence of MTX” value in the test with MV4-11 target cells (TCR stimulation (CD3/CD28)) is on record as “not affected by MTX”.
